The values that follow come from patent US6004793.

The subject of this data set is AvaI restriction endonuclease (recombinant) V1M (start codon GTG changed to ATG) (Anabaena variabilis). Description: cleavage_in_vitro. The following applies: extract of ER2504 [pLG-BsoBIM, pLysS, pAII17-AvaIR]; lambda DNA digestion; recognition site not given.

Consider bacteriophage lambda DNA, for which the activity (units/g wet cells) was 6.4e+06.
